Experimental data as given in patent US7888315B2, “Use of aspartic proteases in cosmetics and therapeutics” (L'Oreal, priority 2002, dated 2011).
Values belong to the molecule of their own block, whether it stands above or below them. [ ]: non-standard residue; d: D form. Nle = CCCC[C@H](N)C(=O)O

Assays:
corneodesmosin = assay: Degradation of corneodesmosin extracted from human stratum corneum; assay type: biochemical; conditions: for % Residual corneodesmosin T24 h/T0*100 / Standardized corneodesmosin T24 h / Standardized corneodesmosin T0: stratum corneum acetone powder; for % Residual corneodesmosin T24 h/T0*100 / Standardized corneodesmosin T24 h: acetate buffer pH 5, 30° C.; for Standardized corneodesmosin T0: acetate buffer pH 5, T0
Description: Corneodesmosin is a marker for desquamation since it is involved in corneocyte cohesion at corneodesmosomes. The more the protein is degraded, the more significant is the detachment of the corneocytes. Corneodesmosin degradation is therefore a key step of desquamation.
The test used in this study therefore consists in following this degradation in the presence of the test substance.
Acetone powders are prepared using stripping varnish (Mehul B, Bernard D, Simonetti L, Bernard M A, Schmidt R: Identification and cloning of a new calmodulin-like protein from human epidermis. J Biol Chem 275: […], 2000), taken from the lower parts of the legs of volunteers with dry skin. Aliquot fractions of 2 mg of stratum corneum powder are introduced separately into Eppendorf tubes, and then immersed in the test solutions in a proportion of 100 μl/mg. The solutions are prepared in acetate buffer, pH 5. A control without protease is prepared in parallel in order to evaluate the natural degradation of corneodesmosin. For each test, three samples are prepared. The samples, trials and control, are incubated at 30° C., with stirring for 24 hours.
The proteins are extracted with complete Laemmli buffer. They are assayed by the Bradford method (Bio-Rad® kit). The concentration of each sample is adjusted so as to allow comparison of the samples. The polypeptides are separated by SDS-PAGE electrophoresis on a 15% acrylamide gel, and then transferred onto a PVDF membrane. Immunodetection with a solution of anti-corneodesmosin antibody used at 1/12 500 and of secondary antibody coupled to peroxidase makes it possible to visualize the corneodesmosin. The bands detected by chemiluminescence are quantified using the Quantity One® program from the company Biorad. The membranes are then stained with amido-black, and then scanned. In addition, the keratins, which are major proteins of corneocyte extracts, are quantified in order to verify the adjustment to 0.6 mg/ml of all the samples.
A positive control for degradation (+) is prepared using 5 mM of EDTA. A trial is carried out in the presence of 60 μg of activated SASPase. A negative control represents the natural degradation of corneodesmosin under the operating conditions of the test.

[1] = target: T1, activated SASPase (SEQ ID NO: 6) (Homo sapiens, UniProt Q53RT3); assay: Effect of retropepsin inhibitors on the caseinolytic activity of the activated SASPase; assay type: biochemical; conditions: activated SASPase in 0.1 M acetate buffer pH 5.5 with DMSO, pre-incubated 1 hour at 4° C., Enzchek casein, 37° C., FIG. 3
T1 construct: GST (N, cleaved yes); made in house; host or cells: E. coli BL21 (DE3)
T1 sequence (Q53RT3 189-326): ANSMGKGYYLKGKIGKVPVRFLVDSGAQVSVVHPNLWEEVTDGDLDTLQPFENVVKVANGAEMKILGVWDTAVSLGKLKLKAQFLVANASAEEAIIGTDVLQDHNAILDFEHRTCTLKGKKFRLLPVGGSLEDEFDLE
Description: 10 μl of activated SASPase (SEQ ID NO: 6) that have been autoactivated (approximately 3 mg/ml) are added to 200 μl of 0.1 M acetate buffer, pH 5.5, containing 20 μl of DMSO with retropepsin inhibitors. A control assay is carried out under the same conditions in the absence of inhibitor.
The mixture is pre-incubated at 4° C. for 1 hour, and the substrate, casein, sold under the name Enzchek® by the company Molecular Probes, is then added in sufficient amount to obtain the concentration recommended by the supplier, the solutions having been heated to 37° C. beforehand.
The casein hydrolysis is followed by measuring the fluorescence on a Biolumin® plate reader sold by the company Molecular Probes, using the excitation/emission couple: 485/535 nm.

SASPase (GST-C27) = target: T2, SASPase (GST-C27) (Homo sapiens, UniProt Q53RT3); assay: Hydrolysis of quenched Abz/(NO2)Tyr peptide substrates by the SASPase; assay type: biochemical
T2 construct: made in house; host or cells: E. coli BL21 (DE3)
T2 sequence (Q53RT3 85-343): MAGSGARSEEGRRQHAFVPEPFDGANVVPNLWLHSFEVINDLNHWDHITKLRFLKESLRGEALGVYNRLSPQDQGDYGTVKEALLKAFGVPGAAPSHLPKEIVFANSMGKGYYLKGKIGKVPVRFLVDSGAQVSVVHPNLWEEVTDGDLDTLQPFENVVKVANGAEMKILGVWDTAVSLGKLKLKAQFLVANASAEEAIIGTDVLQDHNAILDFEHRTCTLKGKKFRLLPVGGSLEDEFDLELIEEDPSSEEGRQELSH
Description: The peptide substrate considered (SEQ ID NO: 31, SEQ ID NO: 32, SEQ ID NO: 33, SEQ ID NO: 34 or SEQ ID NO: 35) quenched using the Abz/(NO2)Tyr fluorescent system is used at 100 μM in DMSO, and then 10 μl of this stock substrate solution are added per 100 μl of 0.1 M acetate buffer, pH 5.00.
10 μg of GST-C27 (fusion protein at 1 mg/ml in PBS) are added. Incubation is carried out at 37° C. The fluorescence is read at 340/450 nm on a Biolumin plate reader at various times.

casein = assay: Influence of pH on the proteolytic activity of SASPase (Enzchek casein substrate); assay type: biochemical
Description: 10 μl of GST-SASPase Δ 1-84 fusion proteins (approximately 3 mg/ml) obtained in example II are incubated in 200 μl of 0.1 M acetate buffer, adjusted to various pH values in the presence of the casein substrate sold under the name Enzchek® by the company Molecular Probes, and used at the concentrations recommended by the supplier.
Each assay is repeated three times.
After incubation at 37° C. for 20 hours, the fluorescence is measured on a plate reader sold under the name Biolumin® by the company Molecular Probes, using the excitation/emission couple: 485/535 nm.

[2] = tested on: oxidized beta-chain of insulin; assay: Hydrolysis of the oxidized beta-chain of insulin followed by HPLC; assay type: biochemical
Description: The oxidized beta-chain of insulin (Sigma) is used as substrate. The concentration is 50 μg in 1.5 ml of 0.1 M acetate buffer, pH 5.0. 50 μl of 12 kD SASPase (SEQ ID NO: 6) (approximately 1 mg/ml) purified by gel filtration are added so as to initialize the hydrolysis. Controls without enzyme or without substrate are used. Over time (1 h to 24 h at 37° C.), HPLCs are performed in order to follow the hydrolysis. The peaks that appear rapidly correspond to the main hydrolysis sites and those that only appear after 24 h correspond to the secondary sites. The peaks are collected after they have been fractionated, and are N-terminal sequences (EDMAN sequencing, Pasteur Institute).

[3] = tested on: SASPase C27 (autocleavage); assay: Autocleavage of the SASPase C27 and of its mutants (SDS-PAGE); assay type: biochemical, human; conditions: fusion protein in 1 M acetate buffer pH 4.5, 37° C., SDS-PAGE over time
Description: The SASPase sequence SEQ ID NO: 5 is modified at aspartic acid No. 212, i.e. on its potential active site. To do this, two oligonucleotides are synthesized such that amino acid 212 is substituted either to alanine (mutant A/D), or to glutamic acid (mutant E/D).
The mutated recombinant proteins are produced according to the same protocol as for the wild-type form, SASPase C27; (SEQ ID NO: 4).
Each recombinant protein produced in fusion protein form is then incubated in a 1 M acetate buffer, pH 4.5, at 37° C. Samples are taken over time and are analyzed by SDS-PAGE.

Molecule: O=C(O)CN(CCN(CC(=O)O)CC(=O)O)CC(=O)O [+control, EDTA, reference compound]
% Residual corneodesmosin T24 h/T0*100 (corneodesmosin; 24 hours): 84%
Standardized corneodesmosin T24 h (corneodesmosin; 24 hours): 26685
Standardized corneodesmosin T0 (corneodesmosin): 31657

kinetics for casein hydrolysis compared with the control [1]: lower than the control
Molecule: Ac-Leu-Leu-Met-aldehyde [RP2]

kinetics for casein hydrolysis compared with the control [1]: significantly higher
Molecule: Ac-Leu-Leu-Nle-aldehyde (Ac-Leu-Leu-[Nle]-aldehyde) [RP3]

kinetics for casein hydrolysis compared with the control [1]: lower than the control
Molecule: Ac-Leu-Val-Phe-aldehyde [RP1]

effect of the peptide substrate on the SASPase (SASPase (GST-C27)): activator effect
Molecule: EFDLDLIEED (listed as Homo sapiens) [SEQ ID NO: 32]

effect of the peptide substrate on the SASPase (SASPase (GST-C27)): activator effect
hydrolysis of the peptide substrate by the SASPase (SASPase (GST-C27); 0.1 M acetate buffer pH 5.00, 10 μg GST-C27, 37° C., fluorescence 340/450 nm, FIG. 5): effectively hydrolyzed
Molecule: EFDLELIEED (listed as Homo sapiens) [SEQ ID NO: 31]

activity in phosphate buffer (casein; 0.1 M phosphate buffer of pH 6 to 7.5, assays not shown): only a weak residual activity
B1: SASPase: novel aspartic acid protease from human keratinocytes, sequence SEQ ID NO: 5; in b201 and b239 the word covers the form tested (protein, listed as Homo Sapiens)
chain: MGSPGASLGIKKALQSEQATALPASAPAVSQPTAPAPSCLPKAGQVIPTLLREAPFSSVIAPTLLCGFLFLAWVAAEVPEESSRMAGSGARSEEGRRQHAFVPEPFDGANVVPNLWLHSFEVINDLNHWDHITKLRFLKESLRGEALGVYNRLSPQDQGDYGTVKEALLKAFGVPGAAPSHLPKEIVFANSMGKGYYLKGKIGKVPVRFLVDSGAQVSVVHPNLWEEVTDGDLDTLQPFENVVKVANGAEMKILGVWDTAVSLGKLKLKAQFLVANASAEEAIIGTDVLQDHNAILDFEHRTCTLKGKKFRLLPVGGSLEDEFDLELIEEDPSSEEGRQELSH
optimal pH of enzymatic activity (casein; GST-SASPase Δ 1-84 fusion protein, 0.1 M acetate buffer, 37° C., 20 hours, FIG. 2): 5 pH
insulin-degrading activity after heat denaturation ([2]; heat denaturation 95° C., 10 min): abolishes its insulin-degrading activity

autocleavage / autoactivation [3]: do not autoactivate
B2: (A/D): SASPase mutant, aspartic acid No. 212 substituted to alanine (protein, UniProt Q53RT3 191-326, looked up, variant D212A)
Retroviral-like aspartic …: SMGKGYYLKGKIGKVPVRFLVASGAQVSVVHPNLWEEVTDGDLDTLQPFENVVKVANGAEMKILGVWDTAVSLGKLKLKAQFLVANASAEEAIIGTDVLQDHNAILDFEHRTCTLKGKKFRLLPVGGSLEDEFDLE

autocleavage / autoactivation [3]: do not autoactivate
B3: (E/D): SASPase mutant, aspartic acid No. 212 substituted to glutamic acid (protein, UniProt Q53RT3 191-326, looked up, variant D212E)
Retroviral-like aspartic …: SMGKGYYLKGKIGKVPVRFLVESGAQVSVVHPNLWEEVTDGDLDTLQPFENVVKVANGAEMKILGVWDTAVSLGKLKLKAQFLVANASAEEAIIGTDVLQDHNAILDFEHRTCTLKGKKFRLLPVGGSLEDEFDLE

autocleavage / autoactivation [3]: autocleavage
B4: GST-SASPase C27: recombinant fusion protein of glutathione S-transferase with truncated SASPase Δ 1-84 (SEQ ID NO: 4) (protein, listed as Homo Sapiens)
chain: MAGSGARSEEGRRQHAFVPEPFDGANVVPNLWLHSFEVINDLNHWDHITKLRFLKESLRGEALGVYNRLSPQDQGDYGTVKEALLKAFGVPGAAPSHLPKEIVFANSMGKGYYLKGKIGKVPVRFLVDSGAQVSVVHPNLWEEVTDGDLDTLQPFENVVKVANGAEMKILGVWDTAVSLGKLKLKAQFLVANASAEEAIIGTDVLQDHNAILDFEHRTCTLKGKKFRLLPVGGSLEDEFDLELIEEDPSSEEGRQELSH

B5: activated SASPase: truncated 12 kD activated form of the aspartic acid protease SASPase, sequence SEQ ID NO: 6 (protein, listed as Homo Sapiens)
chain: ANSMGKGYYLKGKIGKVPVRFLVDSGAQVSVVHPNLWEEVTDGDLDTLQPFENVVKVANGAEMKILGVWDTAVSLGKLKLKAQFLVANASAEEAIIGTDVLQDHNAILDFEHRTCTLKGKKFRLLPVGGSLEDEFDLE
percentage of residual corneodesmosin compared with the controls (corneodesmosin; 60 μg of activated SASPase, 24 hours): significant decrease
% Residual corneodesmosin T24 h/T0*100 (corneodesmosin; 24 hours): 75%
Standardized corneodesmosin T24 h (corneodesmosin; 24 hours): 24918
Standardized corneodesmosin T0 (corneodesmosin): 33107
insulin-degrading activity ([2]; 0.1 M acetate buffer pH 5.0, 37° C., 1 h to 24 h): capable of degrading insulin
